Reference: paper doi:10.1101/2022.06.17.496531 (bioRxiv, 2022)

Experiments:
Experiment in all cases: native MS
[1] = biological target: long neurotoxin from N. melanoleuca (Naja melanoleuca, UniProt P0DQQ2)
[2] = biological target: long neurotoxin 4 from N. naja (Naja naja, UniProt P25672)
[3] = biological target: long neurotoxin 2 from N. melanoleuca (Naja melanoleuca, UniProt P01388)
[4] = biological target: long neurotoxin 2 from O. hannah (Ophiophagus hannah, UniProt A8N285)

Measured: binding result

B1: 2554_01_D11 IgG (antibody, V domains shown)
VH: QVQLVQSGAEVKKPGSSVKVSCKASGGTFSSYAISWVRQAPGQGLEWMGGIIPIFGTANYAQKFQGRVTITADESTSTAYMELRSLRSDDTAVYYCARDNLGYCSGGSCYSDYYYYYMDVWGQGTLVTVSS
VL: NFMLTQPRSVSESPGKTVTISCTRSSGSIGSDYVHWYQQRPGSSPTTVIYEDNQRPSGVPDRFSGSIDSSSNSASLTISGLKTEDEADYYCQSYDRSNHEVVFGGGTKLTVL
binds: all assays above
